# Results taken from patent publication US6403765B1, “Truncated Apaf-1 and methods of use thereof” (Thomas Jefferson University, priority 1998, dated 2002).
# T1: T7-tagged Apaf-530 (Homo sapiens, UniProt O14727)
# T1 construct: expressed in transfected cells; host or cells: 293 cells
# T1 sequence (O14727 1-530 isoform O14727-3): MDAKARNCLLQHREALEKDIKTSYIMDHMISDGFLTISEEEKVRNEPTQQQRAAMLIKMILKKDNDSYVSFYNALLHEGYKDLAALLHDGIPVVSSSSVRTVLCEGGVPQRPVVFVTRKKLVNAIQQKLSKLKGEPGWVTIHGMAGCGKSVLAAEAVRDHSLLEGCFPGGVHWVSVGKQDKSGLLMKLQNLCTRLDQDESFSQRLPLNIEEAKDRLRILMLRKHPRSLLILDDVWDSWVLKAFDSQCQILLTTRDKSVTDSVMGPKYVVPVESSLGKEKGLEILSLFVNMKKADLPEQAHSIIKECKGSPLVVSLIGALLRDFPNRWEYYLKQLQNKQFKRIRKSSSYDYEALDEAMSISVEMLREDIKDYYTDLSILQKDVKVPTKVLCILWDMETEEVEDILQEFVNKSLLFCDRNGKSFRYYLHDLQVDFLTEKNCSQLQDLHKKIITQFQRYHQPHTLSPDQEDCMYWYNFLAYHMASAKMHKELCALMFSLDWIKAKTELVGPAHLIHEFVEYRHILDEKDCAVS
# T2: procaspase-9 (Homo sapiens, UniProt P55211)
# T2 construct: schematic representation of full length procaspase-9; made in house; host or cells: coupled in vitro transcription/translation in rabbit reticulocyte lysate (TNT Kit, Promega)
# T2 sequence (P55211 1-416): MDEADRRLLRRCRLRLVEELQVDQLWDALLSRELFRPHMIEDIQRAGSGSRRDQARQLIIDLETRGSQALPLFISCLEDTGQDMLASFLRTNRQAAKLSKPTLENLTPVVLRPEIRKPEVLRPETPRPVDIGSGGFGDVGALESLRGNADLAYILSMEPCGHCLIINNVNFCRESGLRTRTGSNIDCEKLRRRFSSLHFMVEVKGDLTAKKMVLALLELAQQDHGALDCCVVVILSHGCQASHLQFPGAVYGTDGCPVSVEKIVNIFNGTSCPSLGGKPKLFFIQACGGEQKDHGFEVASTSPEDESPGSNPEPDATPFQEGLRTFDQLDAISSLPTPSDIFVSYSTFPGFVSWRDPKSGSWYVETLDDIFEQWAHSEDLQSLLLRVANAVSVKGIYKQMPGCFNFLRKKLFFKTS
# B1: Apaf-1: full length Apaf-1, 1194 amino acids (protein)
# chain: MDAKARNCLLQHREALEKDIKTSYIMDHMISDGFLTISEEEKVRNEPTQQQRAAMLIKMILKKDNDSYVSFYNALLHEGYKDLAALLHDGIPVVSSSSVRTVLCEGGVPQRPVVFVTRKKLVNAIQQKLSKLKGEPGWVTIHGMAGCGKSVLAAEAVRDHSLLEGCFPGGVHWVSVGKQDKSGLLMKLQNLCTRLDQDESFSQRLPLNIEEAKDRLRILMLRKHPRSLLILDDVWDSWVLKAFDSQCQILLTTRDKSVTDSVMGPKYVVPVESSLGKEKGLEILSLFVNMKKADLPEQAHSIIKECKGSPLVVSLIGALLRDFPNRWEYYLKQLQNKQFKRIRKSSSYDYEALDEAMSISVEMLREDIKDYYTDLSILQKDVKVPTKVLCILWDMETEEVEDILQEFVNKSLLFCDRNGKSFRYYLHDLQVDFLTEKNCSQLQDLHKKIITQFQRYHQPHTLSPDQEDCMYWYNFLAYHMASAKMHKELCALMFSLDWIKAKTELVGPAHLIHEFVEYRHILDEKDCAVSENFQEFLSLNGHLLGRQPFPNIVQLGLCEPETSEVYQQAKLQAKQEVDNGMLYLEWINKKNITNLSRLVVRPHTDAVYHACFSEDGQRIASCGADKTLQVFKAETGEKLLEIKAHEDEVLCCAFSTDDRFIATCSVDKKVKIWNSMTGELVHTYDEHSEQVNCCHFTNSSHHLLLATGSSDCFLKLWDLNQKECRNTMFGHTNSVNHCRFSPDDKLLASCSADGTLKLWDATSANERKSINVKQFFLNLEDPQEDMEVIVKCCSWSADGARIMVAAKNKIFLWNTDSRSKVADCRGHLSWVHGVMFSPDGSSFLTSSDDQTIRLWETKKVCKNSAVMLKQEVDVVFQENEVMVLAVDHIRRLQLINGRTGQIDYLTEAQVSCCCLSPHLQYIAFGDENGAIEILELVNNRIFQSRFQHKKTVWHIQFTADEKTLISSSDDAEIQVWNWQLDKCIFLRGHQETVKDFRLLKNSRLLSWSFDGTVKVWNIITGNKEKDFVCHQGTVLSCDISHDATKFSSTSADKTAKIWSFDLLLPLHELRGHNGCVRCSAFSVDSTLLATGDDNGEIRIWNVSNGELLHLCAPLSEEGAATHGGWVTDLCFSPDGKMLISAGGYIKWWNVVTGESSQTFYTNGTNLKKIHVSPDFKTYVTVDNLGILYILQTLE
# modifications: left off: small tags and cut ends
# notes: full length Apaf-1, 1194 amino acids
# B2: Apaf-530ΔCARD: truncated Apaf-1, residues 98-530, CARD domain deleted (protein)
# chain: SVRTVLCEGGVPQRPVVFVTRKKLVNAIQQKLSKLKGEPGWVTIHGMAGCGKSVLAAEAVRDHSLLEGCFPGGVHWVSVGKQDKSGLLMKLQNLCTRLDQDESFSQRLPLNIEEAKDRLRILMLRKHPRSLLILDDVWDSWVLKAFDSQCQILLTTRDKSVTDSVMGPKYVVPVESSLGKEKGLEILSLFVNMKKADLPEQAHSIIKECKGSPLVVSLIGALLRDFPNRWEYYLKQLQNKQFKRIRKSSSYDYEALDEAMSISVEMLREDIKDYYTDLSILQKDVKVPTKVLCILWDMETEEVEDILQEFVNKSLLFCDRNGKSFRYYLHDLQVDFLTEKNCSQLQDLHKKIITQFQRYHQPHTLSPDQEDCMYWYNFLAYHMASAKMHKELCALMFSLDWIKAKTELVGPAHLIHEFVEYRHILDEKDCAVS
# modifications: left off: small tags and cut ends
# notes: truncated Apaf-1, residues 98-530, CARD domain deleted
# B3: Apaf-97: truncated Apaf-1, residues 1-97, entire CED-4 homology region deleted (protein)
# chain: MDAKARNCLLQHREALEKDIKTSYIMDHMISDGFLTISEEEKVRNEPTQQQRAAMLIKMILKKDNDSYVSFYNALLHEGYKDLAALLHDGIPVVSSS
# modifications: left off: small tags and cut ends
# notes: truncated Apaf-1, residues 1-97, entire CED-4 homology region deleted
# Assays:
# MCF-7 cells = assay: Inhibition of apoptosis in transfected MCF-7 cells; format: cell-based; settings: apoptosis induced by UV, Fas agonist antibody, TRAIL, or overexpression of DR4 and DR5, FIG. 17
# Description: To express the caspases or truncated Apaf-1 in mammalian cells and assay their apoptotic activity, they were amplified with the T7-tag primer and reverse primers using the pET28a constructs as templates, and subcloned into the mammalian double expression vector pRSC-LacZ (MacFarlane et al., J. Biol. Chem., 272:25417-25420, 1997; Tsang et al., Bio/Technology, 22:68, 1997) or as previously described (Li et al., Cell 91:479-489, 1997; Srinivasula et al., J. Biol. Chem., 272:18452-18545, 1997). This vector allows the expression of lacZ under the Rous Sarcoma virus promoter, and the test cDNA under the CMV promoter. To assay for apoptosis, MCF-7 or 293 cells were transfected, using the method commercially available as the Lipofect Amine method (Life Technologies, Inc.), with the pRSC-LacZ constructs in the presence or absence of different apoptosis-inhibitors. 30 h after transfection cells were stained with β-galactosidase and examined for morphological signs of apoptosis. The percentage of round blue apoptotic cells (mean±SD) were determined by phase contrast microscopy and then represented as a function of total blue cells under each condition (n≧3).
# T7-tagged Apaf-530 = molecular target: T1, T7-tagged Apaf-530; assay: Co-immunoprecipitation of Flag-tagged Apaf-1 variants with T7-tagged Apaf-530 in 293 cells; format: binding; settings: anti-Flag immunoprecipitation, anti-T7 blot, 36 hours, FIG. 11
# Procedure: The ability of APAF-530 to oligomerize pro-caspase-9 was tested. Co-transfection experiments in 293 cells were performed with T7-tagged Apaf-530 and different Flag-tagged Apaf-1 variants, and cell lysates were prepared and immunoprecipitated with an anti-Flag antibody. The immunoprecipitates were analyzed by Western blotting with an anti-T7 antibody.
# In FIG. 11, 293 cells were co-transfected with constructs encoding T7-tagged Apaf-530 and an empty vector (lane 1) or constructs encoding Flag-tagged Apaf-1 (lane 2), Flag-tagged Apaf-530 (lane 3), Flag-tagged Apaf-530ΔCARD (lane 4) or Flag-tagged Apaf-97 (lane 5). After 36 hours, extracts were prepared and immunoprecipitated with a monoclonal antibody to the Flag epitope. The immunoprecipitates (upper panel) were analyzed by SDS-PAGE and immunoblotted with a horseradish peroxides-conjugated T7 antibody. The corresponding cellular extracts were also analyzed by SDS-PAGE and immunoblotted with a horseradish peroxides-conjugated T7 antibody (middle panel) or an anti-Flag antibody (lower panel).
# T7-tagged Bcl-xL = molecular target: T3, T7-tagged Bcl-xL (Homo sapiens, UniProt Q07817); assay: Co-immunoprecipitation of Flag-tagged Apaf-1 variants or procaspase-9 with T7-tagged Bcl-xL in 293 cells; format: binding; settings: anti-Flag immunoprecipitation, anti-T7 blot, 36 hours, FIG. 16
# T3 construct: expressed in transfected cells; host or cells: 293 cells
# T3 sequence (Q07817 whole entry): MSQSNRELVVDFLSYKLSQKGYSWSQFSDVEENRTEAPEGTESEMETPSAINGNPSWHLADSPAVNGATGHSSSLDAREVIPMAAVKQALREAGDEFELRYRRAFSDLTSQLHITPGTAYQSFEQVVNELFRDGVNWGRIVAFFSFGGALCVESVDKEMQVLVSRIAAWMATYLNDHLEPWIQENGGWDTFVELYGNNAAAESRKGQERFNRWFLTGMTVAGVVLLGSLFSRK
# Procedure: In vivo interaction experiments between Apaf-1 variants and Bcl-xL were performed. To analyze the ability of Apaf-1 to interact with Bcl-xL, 293 cells were co-transfected with constructs encoding T7-tagged Bcl-xL and constructs encoding Flag-tagged Apaf-97 (FIG. 16, lane 1), Apaf-1 (FIG. 16, lane 2), Apaf-530 (FIG. 16, lane 3) Apaf-530ΔCARD (FIG. 16, lane 4), or procaspase-9 C287A (FIG. 16, lane 5). After 36 hours, extracts were prepared and immunoprecipitated with a monoclonal antibody to the Flag epitope. The immunoprecipitates (FIG. 16, upper panel) were analyzed by SDS-PAGE and immunoblotted with a horseradish peroxidase-conjugated T7 antibody. The corresponding cellular extracts were also analyzed by SDS-PAGE and immunoblotted with a horseradish peroxides-conjugated T7 antibody (FIG. 16, middle panel) or an anti-Flag antibody (FIG. 16, lower panel).
# procaspase-9 = molecular target: T2, procaspase-9; assay: In vitro caspase 9 activation assay: recombinant Apaf-1 variants incubated with in vitro translated procaspase-9; format: biochemical; settings: bacterial lysates with truncated Apaf-1 variants, FIG. 2B
# Procedure: SDS sample buffer was then added to each sample, boiled and subjected to SDS-PAGE analysis followed by autoradiography. In FIG. 2A procaspase-9 was in vitro translated in the presence of ^35S-methionine. Following translation procaspase-9 was desalted by gel filtration through a biospin column (BioRad) to remove unincorporated methionine and free nucleotides. Desalted procaspase-9 was then incubated with 200 ng Ni^2+-affinity purified bacterially expressed recombinant Apaf-530 (WT or K149R mutant) in the presence or absence of cytochrome c or dATP or both for 2 h at 30° C. A mock sample containing Ni^2+-affinity purified material from bacteria transformed with an empty vector was used as a negative control. Following incubation the products were analyzed by SDS-PAGE and autoradiography. In FIG. 2B^35S-labeled procaspase-9 (as described above) was incubated with bacterial lysates containing truncated Apaf-1 variants as indicated and then analyzed as above (2B upper panel). The bacterial lysates were analyzed by SDS-PAGE and immunoblotted with an Apaf-1 antibody which recognizes the N-terminus of Apaf-1 (lanes 2-6) and an anti T7-tag antibody (lanes 7-8) to confirm expression and equivalent concentration of the different Apaf-1 variants (2B lowerpanel). The molecular mass markers are indicated to the right of the lower panel.
# ^35S-labeled caspases were obtained by in vitro translation in the presence of ^35S-methionine using a coupled transcription/translation system in rabbit reticulocyte lysate using TNT Kit (Promega) according to the manufacturer's recommendations.
# To determine the role of the WD-40 repeat in the mechanism of Apaf-1-induced processing of procaspase-9, truncated Apaf-1 (Apaf-530) lacking its WD-40 repeats (FIG. 1) was expressed and purified. To reconstitute a recombinant caspase-9 activation system, the truncated Apaf-530 was incubated with in vitro translated recombinant procaspase-9 in the presence or absence of cytochrome c and dATP. […] It was previously shown that mutation of CED-4 K165R which is required for nucleotide binding destroys its activity (Chinnaiyan et al., Nature 388:728-729, 1997; Jarnes et al., Curr. Biol. 7:246-252, 1997; Seshagiri and Miller, Curr. Biol. 7:455-460, 1997). […] Therefore, either binding of Apaf-1 to cytochrome c and dATP or deletion of the repeats could induce a conformational change enabling Apaf-1 to bind and process procaspase-9.
# In FIG. 3, ^35S-labeled WT or mutant D330A, D315A or C287A mutants of procaspase-9 or prodomainless procaspase-9 (Δpro, residues 134-416) were incubated with buffer (lanes 1, 4, 7, 10, 13), purified Apaf-530 (lanes 2, 5, 8, 11, 14) or mock purified material (lanes, 3, 6, 9, 12, 15) and then analyzed by SDS-PAGE and autoradiography.
Molecule,inhibition of apoptosis (MCF-7 cells),co-immunoprecipitation with T7-Apaf-530 (T7-tagged Apaf-530),co-immunoprecipitation with Bcl-xL (T7-tagged Bcl-xL),activity of the Apaf-1 variant in promoting activation of procaspase-9 (procaspase-9)
Bcl-xL: Bcl-xL expressed from a transfected construct as apoptosis inhibitor comparator [reference compound],inhibition,,,
B1,,co-immunoprecipitated,capable of immunoprecipitating Bcl-xL,
B2,,co-immunoprecipitated,capable of immunoprecipitating Bcl-xL,inactivated
B3,,not,not,inactivated
